The results in this text go back to US20220380407A1.

Holding throughout (experiment): cell-based or functional assay
The target in experiment [1] is KLK5 (#1108-SE-010, R&D Systems) (UniProt Q9Y337).
Experiment [2] has as its target Factor Xa (#1063-SE-010, R&D Systems) (UniProt P00742).
Experiment [3] deals with activated hepsin (#4776-SE-010, R&D Systems) (UniProt P05981).
The next experiment deals with human TMPRSS2 (human) (UniProt O15393).
The target of experiment [4] is matriptase (#3946-SE-010, R&D Systems) (UniProt Q9Y5Y6).
Experiment [5] concerns the target recombinant N-terminal His-tag HGFA serine protease domain (UniProt Q04756).
The target in experiment [6] is recombinant thrombin (#1473-SE-010, R&D Systems) (UniProt P00734).

recombinant N-terminal His-tag HGFA serine protease domain, sequence (Q04756 373-655, form in doubt): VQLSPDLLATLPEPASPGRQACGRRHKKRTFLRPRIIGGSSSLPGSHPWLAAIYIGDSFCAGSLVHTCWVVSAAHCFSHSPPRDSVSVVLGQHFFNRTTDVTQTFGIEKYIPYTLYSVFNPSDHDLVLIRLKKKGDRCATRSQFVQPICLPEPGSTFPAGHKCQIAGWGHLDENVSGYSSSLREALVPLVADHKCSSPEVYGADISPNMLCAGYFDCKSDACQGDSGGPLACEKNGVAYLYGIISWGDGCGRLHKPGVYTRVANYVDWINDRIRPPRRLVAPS
matriptase (#3946-SE-010, R&D Systems), sequence (Q9Y5Y6 615-855 limits assumed): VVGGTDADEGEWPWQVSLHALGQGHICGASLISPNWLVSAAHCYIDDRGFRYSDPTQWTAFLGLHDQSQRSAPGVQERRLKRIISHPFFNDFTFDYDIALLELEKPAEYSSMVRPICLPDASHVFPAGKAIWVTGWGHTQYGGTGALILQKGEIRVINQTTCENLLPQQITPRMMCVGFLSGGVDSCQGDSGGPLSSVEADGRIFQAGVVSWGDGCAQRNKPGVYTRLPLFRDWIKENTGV
activated hepsin (#4776-SE-010, R&D Systems), sequence (P05981 45-417 limits assumed): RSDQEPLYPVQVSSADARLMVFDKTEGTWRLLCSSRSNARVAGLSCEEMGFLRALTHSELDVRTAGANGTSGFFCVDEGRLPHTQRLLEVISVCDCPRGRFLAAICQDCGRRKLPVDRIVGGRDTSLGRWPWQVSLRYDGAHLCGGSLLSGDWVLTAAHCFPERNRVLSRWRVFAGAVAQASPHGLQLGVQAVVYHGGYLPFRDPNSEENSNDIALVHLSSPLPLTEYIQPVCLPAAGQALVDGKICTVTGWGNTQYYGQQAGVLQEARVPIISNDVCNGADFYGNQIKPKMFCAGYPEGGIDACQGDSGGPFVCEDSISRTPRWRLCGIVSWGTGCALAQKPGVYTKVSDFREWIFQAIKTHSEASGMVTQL
KLK5 (#1108-SE-010, R&D Systems), sequence (Q9Y337 23-293 limits assumed): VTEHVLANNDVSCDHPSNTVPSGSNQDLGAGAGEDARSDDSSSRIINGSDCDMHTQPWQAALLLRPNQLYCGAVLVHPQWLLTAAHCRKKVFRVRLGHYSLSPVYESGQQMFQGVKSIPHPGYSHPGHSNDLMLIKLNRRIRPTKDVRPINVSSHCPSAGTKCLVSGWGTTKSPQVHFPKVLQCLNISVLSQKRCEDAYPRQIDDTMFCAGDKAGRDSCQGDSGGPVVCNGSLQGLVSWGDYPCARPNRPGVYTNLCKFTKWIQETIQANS
human TMPRSS2 (human), sequence (O15393 whole entry): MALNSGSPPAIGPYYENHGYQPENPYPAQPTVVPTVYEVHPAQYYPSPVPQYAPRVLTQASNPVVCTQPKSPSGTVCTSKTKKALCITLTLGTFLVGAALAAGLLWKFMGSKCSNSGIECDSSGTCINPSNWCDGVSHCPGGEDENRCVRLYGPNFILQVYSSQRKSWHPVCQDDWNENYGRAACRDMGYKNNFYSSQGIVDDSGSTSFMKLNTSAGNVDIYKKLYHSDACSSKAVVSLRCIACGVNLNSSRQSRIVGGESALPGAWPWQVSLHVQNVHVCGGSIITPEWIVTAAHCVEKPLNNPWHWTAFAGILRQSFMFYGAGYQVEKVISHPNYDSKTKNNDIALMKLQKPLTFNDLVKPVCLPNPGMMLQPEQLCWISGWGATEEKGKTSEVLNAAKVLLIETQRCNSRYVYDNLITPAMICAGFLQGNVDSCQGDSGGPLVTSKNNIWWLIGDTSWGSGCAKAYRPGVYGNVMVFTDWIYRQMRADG
Factor Xa (#1063-SE-010, R&D Systems), sequence (P00742 41-488 limits assumed): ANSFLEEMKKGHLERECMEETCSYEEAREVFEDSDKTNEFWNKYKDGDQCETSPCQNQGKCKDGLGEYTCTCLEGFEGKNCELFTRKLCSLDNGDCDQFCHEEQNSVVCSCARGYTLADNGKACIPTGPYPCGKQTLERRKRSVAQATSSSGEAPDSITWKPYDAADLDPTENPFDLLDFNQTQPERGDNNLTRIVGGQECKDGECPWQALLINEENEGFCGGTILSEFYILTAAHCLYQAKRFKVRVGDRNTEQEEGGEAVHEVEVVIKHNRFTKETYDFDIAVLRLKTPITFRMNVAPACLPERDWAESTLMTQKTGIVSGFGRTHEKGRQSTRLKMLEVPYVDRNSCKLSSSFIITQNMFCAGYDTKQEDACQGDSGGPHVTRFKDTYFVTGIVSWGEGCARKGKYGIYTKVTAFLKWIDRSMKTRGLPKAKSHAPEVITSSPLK

In turn, Leupeptin (peptide) yielded a KLK5 IC50 in experiment [1] above 20000 nM.

Substance Cyclo(allylLY)R-kbt, VD4051 (peptide) had a Factor Xa* (IC50 nM) in experiment [2] of 8810 nM. In experiment [3], this substance gave a Hepsin (IC50 nM) of 102 nM and a Hepsin IC50 of 20 nM. This substance also had a Calu-3 EC50 with human TMPRSS2 (human) of 565 nM. In addition, in experiment [4], the Matriptase (IC50 nM) was determined as 80.2 nM and the Matriptase IC50 is 14 nM. Also, in experiment [5], the HGFA (IC50 nM) was above 20000 nM and the HGFA IC50 is above 20000 nM. Besides, the Thrombin* (IC50 nM) in experiment [6] was above 20000 nM.
